Reference: patent publication US20190016790A1 (MEDICINAL BIOCONVERGENCE RESEARCH CENTER, published 2019)
Residue numbers refer to the chain shown, from its start.

Experiments:
[1] = target: T1, recombinant PICP α2 chain (c-Myc tag at the N-terminus) (human, UniProt P08123 1120-1366); assay: Western blot (anti-His, anti-c-Myc) of Ni/NTA-purified recombinant PICP, non-reducing and reducing SDS-PAGE
T1 construct: Co-expressed with the α1 chain in HEK293F cells; also called recombinant procollagen α2 chain; not shown: c-Myc tag at the N-terminus
T1 sequence: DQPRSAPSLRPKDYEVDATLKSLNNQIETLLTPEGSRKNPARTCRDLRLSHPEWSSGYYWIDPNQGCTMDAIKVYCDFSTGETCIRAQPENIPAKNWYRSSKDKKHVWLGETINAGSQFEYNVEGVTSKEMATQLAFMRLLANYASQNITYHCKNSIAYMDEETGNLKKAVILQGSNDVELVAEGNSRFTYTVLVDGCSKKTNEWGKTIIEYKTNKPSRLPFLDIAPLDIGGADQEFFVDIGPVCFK
Description: The pSecTag2A-PICP α1 vector and the pSecTag2A-PICP α2 vector were mixed at a molar ratio of 2:1, and co-transfected into HEK293F cells. The co-transfected cells were cultured for 7 days, and culture supernatants were harvested, and the proteins were isolated and purified by the same method as in example <1-2>. PIIICP protein was also expressed, isolated, and purified by the same method. The sizes and purities of the purified proteins were analyzed using SDS-PAGE and western blotting (anti-His tag, anti-c-Myc tag) in reducing or non-reducing conditions.

[2] = target: T2, recombinant PICP protein (procollagen type I C-terminal propeptide), heterotrimer of two PICP α1 chains and … (human, UniProt P02452 1219-1464; P08123 1120-1366); assay: indirect ELISA, PICP coated at 2 ug/ml, anti-HA-HRP
T2 construct: Biotinylated for the yeast Fab selection; also called recombinant PICP antigen; PIPC; not shown: 8xHis tag conjugated to the N-terminus of the α1 chain; c-Myc tag conjugated to the N-terminus of the α2 chain

[3] = target: T2, recombinant PICP protein (procollagen …); assay: sandwich ELISA, IgG coated as capture antibody, PICP titrated, polyclonal PICP antibody and anti-rabbit-HRP for detection
Description: The binding specificity to PICP by IgG fragment having VH and VL of clones 1 and 2 (referred to as clone IgG and clone 2 IgG) was investigated by sandwich ELISA (FIG. 9).
2D, 4G, clone 1, clone 2 IgG antibodies as capture antibodies were coated on the microtiter plates, and PICP and PIIICP as antigens were added to each well (100 μl/well) at different concentrations, followed by incubation for 1 hour. After washing with 1×PBST (0.05 Tween 20), detection antibodies (polyclonal PICP antibodies) were diluted with 1×PBST, and added in 100 μl for each, followed by incubation for 1 hour. After washing with 1×PBST, rabbit-HRP (Millipore) antibodies were diluted with 1×PBST, and added in 100 μl for each, followed by incubation for 1 hour. After washing with 1×PBST, TMB solution was added to each well (50 μl/well) to investigate a color development reaction, and then the reaction was stopped by addition of 50 μl of 2N stop solution (H₂SO₄). The absorbance was read at a wavelength of 450 nm using ELISA reader (reference 620 nm).

[4] = target: T2, recombinant PICP protein (procollagen …); assay: SPR, Biacore 2000, PICP immobilized (185 RU), IgG 6.25-100 nM
Text: Specific experiment conditions are as follows.
The affinity was obtained from kinetic rate constants (ka and kd) and equilibrium dissociation constants (KD) using BIA evaluation ver. 3.2 software.

[5] = target: T3, recombinant procollagen type III C-terminal propeptide (PIIICP), His-tagged (UniProt P02461 1222-1466); assay: sandwich ELISA, 2D IgG coated at 16 ug/ml as capture antibody, PIIICP titrated, rabbit anti-PICP antibody and goat anti-rabbit IgG-HRP for detection
T3 construct: domain: C-terminal propeptide; Made in HEK293F cells in the same way as PICP; also called comparative antigen; not shown: His tag conjugated to the PIIICP protein
T3 sequence (looked up): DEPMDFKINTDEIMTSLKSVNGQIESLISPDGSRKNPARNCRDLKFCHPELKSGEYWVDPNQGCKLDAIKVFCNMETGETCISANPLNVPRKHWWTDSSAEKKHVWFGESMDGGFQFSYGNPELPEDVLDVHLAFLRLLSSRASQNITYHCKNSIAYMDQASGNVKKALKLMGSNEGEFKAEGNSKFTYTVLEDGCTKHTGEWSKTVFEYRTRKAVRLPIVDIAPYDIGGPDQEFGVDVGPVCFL

[6] = target: T3, recombinant procollagen type III …; assay: indirect ELISA, PIIICP coated at 2 ug/ml, anti-human IgG-HRP
Description: PICP and PIIICP antigens prepared in <Example 1> were immobilized at a concentration of 2 ug/ml on microtiter plates at room temperature for 1 hour, and blocked with 1×PBST containing 2% skim milk at room temperature for 1 hour. 2D IgG and 4G IgG were serially diluted within a range of 15.625-1000 ng/ml, and added at 100 μl per well to the blocked plates, followed by incubation at room temperature for 1 hour. Human IgG-HRP antibodies (Millipore, 1:2,000) as secondary antibodies were added at 10 μl per well, followed by incubation at room temperature for 1 hour. The incubated microtiter plates were washed three or four times with 1×PBST, and then TMB solution was added at 50 μl per well to conduct a color development reaction at room temperature for 5-10 minutes. The color development reaction was stopped using H₂SO₄ (1 M), and then the absorbance was read at 450 nm using ELISA reader.

[7] = target: T2, recombinant PICP protein (procollagen …); assay: yeast surface Fab display, MACS and FACS with biotinylated PICP
Description: A method of selecting clones specifically binding to PICP proteins from the yeast Fab library are as follows: Antigen protein PICP and similar protein PIIICP were prepared with purity of 99% or higher by the method of the present invention. The PICP proteins were conjugated to biotin using a kit (EZ-LINKTMSulfo-NHS-LC-Biotinylation kit, Pierce Inc., USA). Thereafter, a procedure of screening the constructed libraries using MACS and FACS and analyzing the induced pool was repeated. Through this, the expression level of antibody Fab and the binding affinity of biotinylated PICP can be analyzed.
The biotinylated PICP (500 nM) was conjugated to Fab library expressed on the yeast cell surface at 25° C. for 1 hour. The Fab library incubated with PICP was conjugated with streptavidin-microbead (Miltenyi Biotec Inc., Germany) at 4° C. for 10 minutes, and then clones conjugated with the biotinylated PICP were selected using magnetic-activated cell sorting (MACS). […] Thereafter, FACS procedure was twice repeated using biotinylated PICP with concentrations of 250 nM and 100 nM. […]

B1: recombinant PICP α1 chain (8xHis tag at the N-terminus) (other)
chain: DDANVVRDRDLEVDTTLKSLSQQIENIRSPEGSRKNPARTCRDLKMCHSDWKSGEYWIDPNQGCNLDAIKVFCNMETGETCVYPTQPSVAQKNWYISKNPKDKRHVWFGESMTDGFQFEYGGQGSDPADVAIQLTFLRLMSTEASQNITYHCKNSVAYMDQQTGNLKKALLLQGSNEIEIRAEGNSRFTYSVTVDGCTSHTGAWGKTVIEYKTTKTSRLPIIDVAPLDVGAPDQEFGFDVGPVCFL
notes: Co-expressed with the α2 chain in HEK293F cells; also called recombinant procollagen α1 chain; not shown: 8xHis tag at the N-terminus
**Q.** Does B1 bind [1]?
**A.** binds

B2: 4G scFv (scFv)
chain: EVQLLESGGGLVQPGGSLRLSCAASGFTFSNYYMSWVRQAPGKGLEWVSLISSGNGNKYYADSVKGRFTISRDNSKNTLYLQMNSLRAEDTAVYYCARGSRRCSGAPCYSAYGMDVWGQGTLVTVSSGGGGSGGGGSGGGGSQSVLTQPPSASGTPGQRVTISCTGSSSNIGNNSVTWYQQLPGTAPKLLIYANSQRPSGVPDRFSGSKSGTSASLAISGLRSEDEADYYCGAWDDSLNAYVFGGGTKLTVLG
**Q.** How did the “EC50 (read off the curve)” value [2] turn out when B2 was run?
**A.** ~100 ng/mL

B3: clone 2 IgG (antibody, V domains shown)
VH: EVQLVESGGGLVQPGGSLRLSCAASGFTFSSYWMSWVRQAPGKGLEWVSVISYDGGNKYYADSVKGRFTISRDNSKNTLYLQMNSLRAEDTAVYYCAKWANDHNSDLNFDYWGQGTLVTVSS
VL: DIQMTQSPSSLSASVGDRVTITCRASQGISTDLGWYQQKPGKAPKLLIYAASSLESGVPSRFSGSGSGTDFTLTISSLQPEDFATYYCQQHDSYPTTFGQGTKVEIKR
notes: Chimeric: human Fab VH and VL of yeast clone 2 on mouse IgG2a heavy chain constant domains and mouse kappa light chain
**Q.** Does B3 bind [3]?
**A.** binds

B4: clone 1 IgG (antibody, V domains shown)
VH: EVQLVESGGGLVQPGGSLRLSCAASGFTFSYYWMSWVRQAPGKGLEWVSTISYGGGGKYYADSVKGRFTISRDNSKNTLYLQMNSLRAEDTAVYYCVRSYGAIPPNTIDYWGQGTLVTVSS
VL: B3 VL with T31S, G34A, E55Q, H91P, D92Y, Y94T, T96S
notes: Chimeric: human Fab VH and VL of yeast clone 1 on mouse IgG2a heavy chain constant domains and mouse kappa light chain; also called clone IgG
**Q.** Does B4 bind [3]?
**A.** binds

B5: 2D scFv (scFv)
chain: EVQLLESGGGLVQPGGSLRLSCAASGFTFSSYYMSWVRQAPGKGLEWVSGISPGSGSKYYADSVKGRFTISRDNSKNTLYLQMNSLRAEDTAVYYCARATVPCKGPACYSAYGMDVWGQGTLVTVSSGGGGSGGGGSGGGGSQSVLTQPPSAPGTPGQRVTISCSGSSSNIGNNAVNWYQQLPGTAPKLLIYSNSHRPSGVPDRFSGSKSGTSASLAISGLRSEDEADYYCGSWDASLNGYVFGGGTKLTVLG
**Q.** With B5 as the binder, how does the “EC50 (read off the curve)” value [2] read?
**A.** ~300 ng/mL

B6: 2D IgG (antibody, V domains shown)
VH: EVQLLESGGGLVQPGGSLRLSCAASGFTFSSYYMSWVRQAPGKGLEWVSGISPGSGSKYYADSVKGRFTISRDNSKNTLYLQMNSLRAEDTAVYYCARATVPCKGPACYSAYGMDVWGQGTLVTVSS
VL: QSVLTQPPSAPGTPGQRVTISCSGSSSNIGNNAVNWYQQLPGTAPKLLIYSNSHRPSGVPDRFSGSKSGTSASLAISGLRSEDEADYYCGSWDASLNGYVFGGGTKLTVLG
notes: IgG made from 2D scFv VH and VL in pcDNA3.4 and expressed in 293F cells; Detected with human IgG-HRP; also called IgG containing the variable regions of clone 2D
**Q.** B6 was tested. Which Kd [4] did it give?
**A.** 11.6 nM

**Q.** What about the koff [4] of the same binder?
**A.** 0.00276 s⁻¹

**Q.** What about the kon [4] of the same binder?
**A.** 237000 M⁻¹ s⁻¹

**Q.** Does B6 bind [5]?
**A.** no binding (tested: 100 ng/ml)

B7: 4G IgG (antibody, V domains shown)
VH: EVQLLESGGGLVQPGGSLRLSCAASGFTFSNYYMSWVRQAPGKGLEWVSLISSGNGNKYYADSVKGRFTISRDNSKNTLYLQMNSLRAEDTAVYYCARGSRRCSGAPCYSAYGMDVWGQGTLVTVSS
VL: B6 VL with P11S, S23T, A33S, N35T, S51A, H54Q, S91A, A94D, G98A
notes: IgG made from 4G scFv VH and VL in pcDNA3.4 and expressed in 293F cells; Detected with human IgG-HRP; also called IgG containing the variable regions of clone 4G
**Q.** What does the source list for B7?
**A.** Kd [4]: 16.8 nM; koff [4]: 0.00319 s⁻¹; kon [4]: 190000 M⁻¹ s⁻¹; binding result [6]: no binding (tested: 1000 ng/ml)

B8: clone 1 Fab (Fab, V domains shown)
VH: B4 VH
VL: DIQMTQSPSSLSASVGDRVTITCRASQGISSDLAWYQQKPGKAPKLLIYAASSLQSGVPSRFSGSGSGTDFTLTISSLQPEDFATYYCQQPYSTPSTFGQGTKVEIK
**Q.** Does B8 bind [7]?
**A.** binds

B9: clone 2 Fab (Fab, V domains shown)
VH: B3 VH
VL: B8 VL with S31T, A34G, Q55E, P91H, Y92D, T94Y, S96T
**Q.** Does B9 bind [7]?
**A.** binds
